{"source": "patent US20160311918A1", "about": "“Anti-Ron Monoclonal Antibodies as a Cytotoxic Drug Delivery System for Targeted Cancer Therapy” (TEXAS TECH UNIVERSITY SYSTEM, priority 2013, published 2016)", "tested_on": "SW620-derived tumors", "assay": "SW620 mouse xenograft tumor model", "assay_type": "in vivo", "conditions": "single dose 20 mg/kg", "experimental": "Athymic nude mice (five mice per group) were subcutaneously inoculated with 5×10^6 HCT116, HT29, and SW620 cells followed by injection of 20 mg/kg Zt/g4-DM1 through tail vein. FIG. 4A: Tumor growth from HT29-luc2 or HCT116-luc2 cells was determined by measuring average photon intensity (left panel). SW620-derived tumor growth was monitored by measuring tumor volume (FIG. 4B) (right panel). FIG. 4C: Tumor images with photon emission or caliper measurement at day 16 are presented. The scale from minimal to maximal is set at 300 to 35,000 photons per second. The percentages of inhibition were calculated from the average photon emission (for HT29 and HCT116 cells) or tumor volume (for SW620 cells). […] The percentages of inhibition were calculated by a formula: (average tumor weight from Zt/g4-DM1 treated group/average tumor weight from control mice)×100%;\nMouse xenograft CRC model and anti-RON ADC treatment: All mice studies were approved by the institutional animal care committee. […] Bioluminescence from individual tumors was measured every four days using Caliper IVIS image system (PerkinElmer). Tumor volumes from SW620-derived tumors were measured according to a formula: V=pi/6×1.58×(length×width)^3/2 (18,33). […]\nThe inventors first determined the efficacy of a single dose of Zt/g4-DM1 at 20 mg/kg body weight on tumors derived from HCT116, HT29, and SW620 cells. […]", "data": [{"molecule": "Zt/g4-DM1: anti-RON mouse mAb Zt/g4 conjugated to maytansinoid DM1 via non-reducible thioether linkage (SMCC), DAR about 4:1 (conjugate) VH: EVQLQQSGAELVKPGASVKLSCTTSGFNIIDTYIHWVNQKPDQGLEWIGRIDPADGNRKSDPKFQVKATITVDTSSNTAYLQLSSLTSGDTAVYYCARGYGNLNAMDSWGQGTSVTVSS VL: DIQMNQSPSSLSASLGDTITITCHASQNINVWLNWYQQKPGNIPKLLIYKASNLHTGVPSRFSGSGSGTGFTLTISSLQPEDIATYYCQQGQSYPLTFGGGTKLEIK", "values": [{"measurement": "inhibition in tumor volume", "setting": "day 16", "result": 82, "unit": "%"}, {"measurement": "inhibition rate by average tumor weight", "setting": "day 28", "result": 61.9, "unit": "%"}]}]}
